Results on 10 molecules are retold here after patent US20260035456A1 (SHANGHAI JEYOU PHARMACEUTICAL, published 2026).

Assay [1] addresses T1, biotin-labeled mouse ADM (mouse, not fully specified; biotin label (named mouse ADM-C-biotin in Example 1.4; position of the biotin not stated for the other lots)).
T1 construct: Synthetic peptide; also called mouse ADM-C-biotin; mADM-Biotin
T1 peptide: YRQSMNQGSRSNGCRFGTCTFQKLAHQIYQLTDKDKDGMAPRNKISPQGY
As to the kind of experiment: BLI (Octet RED96e), as in Example 3. How it is done: (§1) The affinity of antibodies 2004hz00, 2004hz97, and 2004hz99 for biotin-labeled human and mouse ADM (human ADM Cat. No. 894757, mouse ADM Cat. No. 894758, synthesized by GLBiochem) was determined by adopting Octet RED96e (Fortebio). The antigens and the antibodies were all diluted with 1× PBST (1× PBS: Sangon, B548117-0500; 0.02% Tween 20: sigma, P1379), the concentration of the antibody used was 100 nM, and the concentration of the antigen used was 2 μg/mL. The candidate antibody sample was added to a 96-well plate (Greiner bio-one, 655209) at 200 μL/well, the software parameters were set, the temperature was 30° C., and the standard kinetic signal was collected at a frequency of 5.0 Hz; and an SA sensor (Fortebio, Cat. No. 18-5020) was pre-wetted with 1× PBST for 10 min and then tested on a machine.
(§2) The equilibrium dissociation constants (KD) of the antibodies were calculated by measuring the association rates (Kon) and the dissociation rates (Koff) of the antigen-antibody in a 1:1 binding manner by adopting the Data Analysis 12.0 software from Fortebio.
(§3) Similar to Example 3, the affinity of the affinity-matured antibodies Ab2004.Am31 -Ab2004.Am40 and the parent antibody Ab2004.Am01 for human and mouse ADM was further determined, respectively, and the results are shown in Table 10. It can be seen from Table 10 […].

The target in assay [2] is T2, biotin-labeled human ADM (human, not fully specified; biotin label (named human ADM-C-biotin in Example 1.4; position of the biotin not stated for the other lots)).
T2 construct: Synthetic peptide; also called human ADM-C-biotin; hADM-Biotin
T2 peptide: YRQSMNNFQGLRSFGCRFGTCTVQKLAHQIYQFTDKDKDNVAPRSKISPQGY
The assay is described as follows: BLI (Octet RED96e), as in Example 3. As to the method: as §1, §2, §3

The Kd is a measure of binding affinity in units of concentration. Lower therefore signals a tighter complex. The koff is the rate constant with which the complex falls apart. Read a low koff as a long-lived complex. One may read the kon as the second-order rate constant of association.

B1: Ab2004.Am36 (IgG1 antibody) (antibody, V domains shown)
VH: QVQLVQSGAEVKKPGASVKVSCKASGYTFTQYGIAWVRQAPGQGLEWMGWISAYQGNTNYAQKLQGRVTMTRDTSTSTAYMELRSLRSDDTAVYYCAREGRWGGSFNIWGQGTMVTVSS
VL: DIQMTQSPSSLSASVGDRVTITCRASQGISSYLAWYQQKPGKAPKLLIYDASNVDTGVPSRFSGSGSGTDFTFTISSLQPEDIATYYCQQYDNLPLTFGGGTKVEIKR
notes: Expressed in CHO cells, human IgG1/kappa
In assay [1], B1 yielded a Kd of 0.518 nM, a Response value of 2.75, a koff of 0.000221 s⁻¹ and a kon of 427000 M⁻¹ s⁻¹. Besides, in assay [2], the Kd was determined as 0.291 nM, the Response value stood at 2.7, the koff worked out at 0.000108 s⁻¹ and the kon is 372000 M⁻¹ s⁻¹.

B2: Ab2004.Am31 (IgG1 antibody) (antibody, V domains shown)
VH: QVQLVQSGAEVKKPGASVKVSCKASGYTFTQYGIAWVRQAPGQGLEWMGWISAYQGNTNYAQKLQGRVTMTRDTSTSTAYMELRSLRSDDTAVYYCAREGRWGGSFNIWGQGTMVTVSS
VL: DIQMTQSPSSLSASVGDRVTITCRASEGISEYLAWYQQKPGKAPKLLIYDASNLETGVPSRFSGSGSGTDFTFTISSLQPEDIATYYCQQYDNLPLTFGGGTKVEIKR
notes: as for B1
In assay [1], B2 yielded a Kd of 0.412 nM, a Response value of 2.81, a koff of 0.000221 s⁻¹ and a kon of 537000 M⁻¹ s⁻¹. Moreover, in assay [2], the Kd was determined as 0.288 nM, the Response value worked out at 2.64, the koff came out at 0.000141 s⁻¹ and the kon came out at 491000 M⁻¹ s⁻¹.

B3: Ab2004.Am33 (IgG1 antibody) (antibody, V domains shown)
VH: QVQLVQSGAEVKKPGASVKVSCKASGYTFTSYGISWVRQAPGQGLEWMGWISPYSGNTNYAQKLQGRVTMTRDTSTSTAYMELRSLRSDDTAVYYCAREGRWGGSFNIWGQGTMVTVSS
VL: DIQMTQSPSSLSASVGDRVTITCRASEGISEYLAWYQQKPGKAPKLLIYDASNLETGVPSRFSGSGSGTDFTFTISSLQPEDIATYYCQQYDNLPLTFGGGTKVEIKR
notes: as for B1
Consider B3, for which, in assay [1], binding was put at a Kd of 0.474 nM, the Response value turned out to be 2.8, the koff was 0.000365 s⁻¹ and the kon came out at 769000 M⁻¹ s⁻¹. In assay [2], the Kd stood at 0.316 nM, the Response value came to 2.63, the koff was determined as 0.000214 s⁻¹ and the kon was 676000 M⁻¹ s⁻¹.

B4: Ab2004.Am38 (IgG1 antibody) (antibody, V domains shown)
VH: QVQLVQSGAEVKKPGASVKVSCKASGYTFTSYGISWVRQAPGQGLEWMGWISPYTGKTNYAQKLQGRVTMTRDTSTSTAYMELRSLRSDDTAVYYCAREGRWGGSFNIWGQGTMVTVSS
VL: DIQMTQSPSSLSASVGDRVTITCRASQGISSYLAWYQQKPGKAPKLLIYDTSDLDTGVPSRFSGSGSGTDFTFTISSLQPEDIATYYCQQYDNLPLTFGGGTKVEIKR
notes: as for B1
In assay [1], B4 registered a Kd of 0.467 nM, a Response value of 2.88, a koff of 0.000342 s⁻¹ and a kon of 733000 M⁻¹ s⁻¹. In addition, in assay [2], the affinity, expressed as Kd, was 0.255 nM; the Response value is 2.83; the koff came out at 0.00016 s⁻¹; the kon was determined as 626000 M⁻¹ s⁻¹.

B5: Ab2004.Am34 (IgG1 antibody) (antibody, V domains shown)
VH: QVQLVQSGAEVKKPGASVKVSCKASGYTFTHYGIAWVRQAPGQGLEWMGWISAYQGNTNYAQKLQGRVTMTRDTSTSTAYMELRSLRSDDTAVYYCAREGRWGGSFNIWGQGTMVTVSS
VL: DIQMTQSPSSLSASVGDRVTITCRASQGISSYLAWYQQKPGKAPKLLIYDVSILDAGVPSRFSGSGSGTDFTFTISSLQPEDIATYYCQQYDNLPLTFGGGTKVEIKR
notes: as for B1
In assay [1], B5 showed a Kd of 0.451 nM, a Response value of 2.78, a koff of 0.000222 s⁻¹ and a kon of 492000 M⁻¹ s⁻¹. Besides, in assay [2], the Kd came to 0.154 nM, the Response value amounted to 2.61, the koff was determined as 6.81e-05 s⁻¹ and the kon turned out to be 444000 M⁻¹ s⁻¹.

B6: Ab2004.Am40 (IgG1 antibody) (antibody, V domains shown)
VH: QVQLVQSGAEVKKPGASVKVSCKASGYTFTQYGIAWVRQAPGQGLEWMGWISAYQGNTNYAQKLQGRVTMTRDTSTSTAYMELRSLRSDDTAVYYCAREGRWGGSFNIWGQGTMVTVSS
VL: DIQMTQSPSSLSASVGDRVTITCRASQGISSYLAWYQQKPGKAPKLLIYDASNLETGVPSRFSGSGSGTDFTFTISSLQPEDIATYYCQQYDDLPLSFGGGTKVEIKR
notes: as for B1
In assay [1], B6 displayed a Kd of 0.492 nM, a Response value of 2.65, a koff of 0.000253 s⁻¹ and a kon of 513000 M⁻¹ s⁻¹. In assay [2], the Kd amounted to 0.352 nM, the Response value amounted to 2.66, the koff is 0.000158 s⁻¹ and the kon came to 449000 M⁻¹ s⁻¹.

B7: Ab2004.Am37 (IgG1 antibody) (antibody, V domains shown)
VH: QVQLVQSGAEVKKPGASVKVSCKASGYTFTSYGISWVRQAPGQGLEWMGWISPYTGKTNYAQKLQGRVTMTRDTSTSTAYMELRSLRSDDTAVYYCAREGRWGGSFNIWGQGTMVTVSS
VL: DIQMTQSPSSLSASVGDRVTITCRASQGISSYLAWYQQKPGKAPKLLIYDVSILDAGVPSRFSGSGSGTDFTFTISSLQPEDIATYYCQQYDNLPLTFGGGTKVEIKR
notes: as for B1
Take B7: in assay [1], the Kd amounted to 0.469 nM, the Response value amounted to 2.85, the koff came to 0.00033 s⁻¹ and the kon was determined as 703000 M⁻¹ s⁻¹. Also, in assay [2], the Kd was found to be 0.256 nM, the Response value came to 2.88, the koff was 0.00015 s⁻¹ and the kon is 587000 M⁻¹ s⁻¹.

B8: Ab2004.Am32 (IgG1 antibody) (antibody, V domains shown)
VH: QVQLVQSGAEVKKPGASVKVSCKASGYTFTQYGIAWVRQAPGQGLEWMGWISAYQGNTNYAQKLQGRVTMTRDTSTSTAYMELRSLRSDDTAVYYCAREGRWGGSFNIWGQGTMVTVSS
VL: DIQMTQSPSSLSASVGDRVTITCRAAEGIGSYLAWYQQKPGKAPKLLIYDASNLETGVPSRFSGSGSGTDFTFTISSLQPEDIATYYCQQYDNLPLTFGGGTKVEIKR
notes: as for B1
On to B8, for which, in assay [1], the Kd turned out to be 0.474 nM, the Response value came out at 2.76, the koff is 0.000219 s⁻¹ and the kon was determined as 461000 M⁻¹ s⁻¹. Also, in assay [2], binding was characterised by a dissociation constant (Kd) of 0.34 nM, the Response value was found to be 2.53, the koff came to 0.000146 s⁻¹ and the kon came out at 430000 M⁻¹ s⁻¹.

B9: Ab2004.Am39 (IgG1 antibody) (antibody, V domains shown)
VH: QVQLVQSGAEVKKPGASVKVSCKASGYTFTHYGIAWVRQAPGQGLEWMGWISAYQGNTNYAQKLQGRVTMTRDTSTSTAYMELRSLRSDDTAVYYCAREGRWGGSFNIWGQGTMVTVSS
VL: DIQMTQSPSSLSASVGDRVTITCRASQGISSYLAWYQQKPGKAPKLLIYDASNLETGVPSRFSGSGSGTDFTFTISSLQPEDIATYYCQQYDDLDLTFGGGTKVEIKR
notes: as for B1
In assay [1], B9 gave an equilibrium dissociation constant (Kd) of 0.489 nM, a Response value of 2.7, a koff of 0.000266 s⁻¹ and a kon of 543000 M⁻¹ s⁻¹. In assay [2], the Kd worked out at 0.178 nM, the Response value turned out to be 2.57, the koff amounted to 8.33e-05 s⁻¹ and the kon was determined as 468000 M⁻¹ s⁻¹.

B10: Ab2004.Am35 (IgG1 antibody) (antibody, V domains shown)
VH: QVQLVQSGAEVKKPGASVKVSCKASGYTFTQYGIAWVRQAPGQGLEWMGWISAYQGNTNYAQKLQGRVTMTRDTSTSTAYMELRSLRSDDTAVYYCAREGRWGGSFNIWGQGTMVTVSS
VL: DIQMTQSPSSLSASVGDRVTITCRASQGISSYLAWYQQKPGKAPKLLIYDVSILDAGVPSRFSGSGSGTDFTFTISSLQPEDIATYYCQQYDNLPLTFGGGTKVEIKR
notes: as for B1
Turning to B10, in assay [1], the Kd turned out to be 0.452 nM, the Response value turned out to be 2.74, the koff came out at 0.000206 s⁻¹ and the kon came to 456000 M⁻¹ s⁻¹. In assay [2], this molecule showed a Kd of 0.281 nM, a Response value of 1.96, a koff of 0.000119 s⁻¹ and a kon of 423000 M⁻¹ s⁻¹.
